# Measured values: patent EP2397495A1 (SANOFI, dated 2011)
# “And” between values parts separate entries of the source, which are not always exact repeats. Equal values may be shown once.
# T1: human GPVI on the platelet surface (human, UniProt Q9HCN6 21-339)
# T1 sequence (looked up): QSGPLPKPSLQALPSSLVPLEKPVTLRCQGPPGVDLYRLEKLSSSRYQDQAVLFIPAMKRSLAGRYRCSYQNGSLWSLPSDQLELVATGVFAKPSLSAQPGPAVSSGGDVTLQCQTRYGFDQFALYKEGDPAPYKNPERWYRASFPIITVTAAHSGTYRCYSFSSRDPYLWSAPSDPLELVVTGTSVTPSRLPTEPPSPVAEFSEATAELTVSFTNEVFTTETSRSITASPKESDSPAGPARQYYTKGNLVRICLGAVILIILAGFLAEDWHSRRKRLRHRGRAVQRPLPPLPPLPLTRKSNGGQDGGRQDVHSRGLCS
# B1: humanized anti-GPVI Fab VL1 with VH2 (Fab, V domains shown)
# VH: QVQLQESGPGLVAPSQSLSITCTVSGFSLTGYGVNWVRQPPSRGLEWLGMIWGDGSTDYQSTLKSRLSISKDNSKSQVFLKMNSLTTDDTARYYCARDLPMDYWGQGTSVTVSS
# VL: DIQMTQSPSSLSASVGGRVTITCKASQDINKYIAWYQHKPGKGPSLLIHYTSTLQPGVPSRFSGSGSGRDYSFSISNLQPEDIATYYCLQYANLLTFGGGTKLEIKR
# B2: humanized anti-GPVI Fab VL2 with VH2 (Fab, V domains shown)
# VH: QVQLQESGPGLVAPSQSLSITCTVSGFSLTGYGVNWVRQPPSRGLEWLGMIWGDGSTDYQSTLKSRLSISKDNSKSQVFLKMNSLTTDDTARYYCARDLPMDYWGQGTSVTVSS
# VL: DIQMTQSPSSLSASVGGRVTITCKASQDINKYIAWYQHKPGKGPSLLIHYTSTLQPGVPSRFSGSGSGRDYSFSISNLQPEDIATYYCLQYAHLLTFGGGTKLEIKR
# B3: humanized anti-GPVI Fab VL1 with VH1 (Fab, V domains shown)
# VH: QVQLQESGPGLVAPSQSLSITCTVSGFSLTGYGVNWVRQPPSRGLEWLGMIWGDGSTDYQSTLKSRLSISKDTSKSQVFLKMNSLTTDDTARYYCARDLPMDYWGQGTSVTVSS
# VL: DIQMTQSPSSLSASVGGRVTITCKASQDINKYIAWYQHKPGKGPSLLIHYTSTLQPGVPSRFSGSGSGRDYSFSISNLQPEDIATYYCLQYANLLTFGGGTKLEIKR
# B4: humanized anti-GPVI Fab VL1 with VH5 (Fab, V domains shown)
# VH: QVQLQESGPGLVAPSQSLSITCTVSGFSLTGYGVNWVRQPPSRGLEWLGMIWGDGSTDYQSTLKSRLSISKDNSKSQVFLKMNSLTTDDTARYYCARDLPMDEWGQGTSVTVSS
# VL: DIQMTQSPSSLSASVGGRVTITCKASQDINKYIAWYQHKPGKGPSLLIHYTSTLQPGVPSRFSGSGSGRDYSFSISNLQPEDIATYYCLQYANLLTFGGGTKLEIKR
# B5: humanized anti-GPVI Fab VL1 with VH3 (Fab, V domains shown)
# VH: EVQLLESGPGLVAPSGSLSITCTVSGFSLTGYGVNWVRQPPGKGLEWLGMIWGDGSTDYQSTLKSRLSISKDNSKSQVFLKMNSLRTDDTARYYCARDLPMDYWGLGTSVTVSS
# VL: DIQMTQSPSSLSASVGGRVTITCKASQDINKYIAWYQHKPGKGPSLLIHYTSTLQPGVPSRFSGSGSGRDYSFSISNLQPEDIATYYCLQYANLLTFGGGTKLEIKR
# B6: humanized anti-GPVI Fab VL1 with VH4 (Fab, V domains shown)
# VH: QVQLQESGPGLVAPSQSLSITCTVSGFSLTYYGVNWVRQPPSRGLEWLGMIWGDGSTDYQSTLKSRLSISKDNSKSQVFLKMNSLTTDDTARYYCARDLPMDYWGQGTSVTVSS
# VL: DIQMTQSPSSLSASVGGRVTITCKASQDINKYIAWYQHKPGKGPSLLIHYTSTLQPGVPSRFSGSGSGRDYSFSISNLQPEDIATYYCLQYANLLTFGGGTKLEIKR
# B7: humanized anti-GPVI Fab VL3 with VH4 (Fab, V domains shown)
# VH: QVQLQESGPGLVAPSQSLSITCTVSGFSLTYYGVNWVRQPPSRGLEWLGMIWGDGSTDYQSTLKSRLSISKDNSKSQVFLKMNSLTTDDTARYYCARDLPMDYWGQGTSVTVSS
# VL: DIQMTQSPSSLSASVGGRVTITCKASQDINKYIAWYQHKPGKGPSLLIHYTSTLQPGVPSRFSGSGSGRDYSFSISNLQPEDIATYYCLQYALLLTFGGGTKLEIKR
# B8: humanized anti-GPVI Fab VL3 with VH2 (Fab, V domains shown)
# VH: QVQLQESGPGLVAPSQSLSITCTVSGFSLTGYGVNWVRQPPSRGLEWLGMIWGDGSTDYQSTLKSRLSISKDNSKSQVFLKMNSLTTDDTARYYCARDLPMDYWGQGTSVTVSS
# VL: DIQMTQSPSSLSASVGGRVTITCKASQDINKYIAWYQHKPGKGPSLLIHYTSTLQPGVPSRFSGSGSGRDYSFSISNLQPEDIATYYCLQYALLLTFGGGTKLEIKR
# Target: T1, human GPVI on the platelet surface
# Assay: cell-based or functional assay
binder,measurement,value
B1,"IC50, inhibition of collagen induced platelet aggregation (human platelet rich plasma)",2.3 µg/mL and 2 µg/mL and 1.1 µg/mL
B2,"IC50, inhibition of collagen induced platelet aggregation (human platelet rich plasma)",1.4 µg/mL and 2.4 µg/mL and 2.3 µg/mL
B3,"IC50, inhibition of collagen induced platelet aggregation (human platelet rich plasma)",1.5 µg/mL and 2.3 µg/mL
B4,"IC50, inhibition of collagen induced platelet aggregation (human platelet rich plasma)",1.9 µg/mL and 2.3 µg/mL and 1.2 µg/mL
B5,"IC50, inhibition of collagen induced platelet aggregation (human platelet rich plasma)",1.5 µg/mL and 1.7 µg/mL
B6,"IC50, inhibition of collagen induced platelet aggregation (human platelet rich plasma)",1.6 µg/mL and 1.8 µg/mL and 1.2 µg/mL
B7,"IC50, inhibition of collagen induced platelet aggregation (human platelet rich plasma)",1 µg/mL and 2.3 µg/mL and 2 µg/mL
B8,"IC50, inhibition of collagen induced platelet aggregation (human platelet rich plasma)",1.9 µg/mL and 0.9 µg/mL and 2.1 µg/mL
